Test results taken from US20090068110A1, “ANTIBODIES TO INSULIN-LIKE GROWTH FACTOR RECEPTOR” (Genentech, Inc., priority 2006, published 2009).

B1: chimeric 9F2-IgG (antibody, V domains shown)
VH: QIQLVQSGPELKKPGETVKISCKASGYTLANYGMNWVKQAPGKGFKWMGWINTNTGKPTYSDEFKGRFVFSLETSASTAYLLINNLSNEDTATYFCARSIYYYGSRYFNVWGAGTT
VL: DIQMTQSTSSLSASLGDRVTISCRASQDINNYLTWYQQKPDGTVKLLIYYTSRLHSGVPSRFSGSGSGTDYSLTITNLEQEDFATYFCQQGNTLPWTFGEGTKVEIKR
notes: also called human chimeric 9F2
B2: 2B4: mouse monoclonal anti-IGF-1R antibody from hybridoma 2B4.2.8, ATCC PTA-7009 (antibody, V domains shown)
VH: QIQLVQSGPELKKPGETVKISCKASGYNLANYGLNWVKQAPGEGLKWMGWINTNTGAPTYAEEFKGRFVFFLETSASTAYLQINNLSDEDTATYFCARSIYYYASRYFNVWGAGTS
VL: DIQMTQTTSSLSASLGDKVTISCRASQDISNYLNWYQQKPDGTIKLLIYYTSRLHSGIPSRFSGSGSGTDYSLTISNLEQEDIATYFCQQGNTLPWTFGGGTKVEIKR

What was measured:
cynomolgus-monkey IGF-1R = cynomolgus-monkey IGF-1R (cynomolgus monkey, UniProt G7P9I7 31-908); assay: BIACORE surface plasmon resonance: IGF-1R immobilized on CM5 chip (about 500 RU), IgG injected 250-0.78 nM, 25 C, 1:1 Langmuir model (apparent affinity)
human IGF-1R-ECD = biological target: T1, human IGF-1R-ECD (Homo sapiens, UniProt P08069); assay: competitive ELISA, blocking of IGF-I/II and IGF-1R interaction; assay type: binding; settings: antibody 100 nM to 0.0976 nM, biotinyl-IGF-I or IGF-II 60 ng/ml
T1 construct: containing the extracellular domain (ECD, amino acids 1-902) tagged with 10 or 12 histidine residues at the carboxyl terminus; His10 or His12 (C); made in house; host or cells: CHO cells
Experimental: To determine whether the anti-IGF-1R antibodies could block ligand/receptor interaction, competitive ELISA was utilized. Human IGF-1R-ECD was coated overnight at 4° C. at 1 μg/ml in a 96-well immunoplate (Nalge Nunc International, Rochester, N.Y., USA). The ELISA plate was washed with wash buffer (PBS, 0.05% TWEEN™ 20 surfactant, pH 7.4), and 150 μl/well of blocking buffer (PBS with 0.5% BSA) was added for one hour at room temperature with gentle agitation. Purified anti-IGF-1R antibodies were first subjected to a two-fold dilution from 100 nM to 0.0976 nM in assay buffer (PBS, 0.5% BSA and 0.05% TWEEN™ 20 surfactant, pH 7.4) and added to the immunoplate to incubate at room temperature for one hour. Biothinyl-IGF-I or IGF-II at 60 ng/ml concentrations (Cell Science, Canton, Mass., USA) was then added and incubated for another 30 minutes. The ELISA plate was washed three times, and 100 μl/well of streptavidin-HRP (GE Healthcare, Piscataway, N.J., USA) at a dilution of 1:6,000 was added for 20 minutes. Color development was conducted as described in conjunction with the direct ELISA. The selected anti-IGF-1R antibodies inhibited IGF-I or IGF-II binding to IGF-1R to various degrees (FIGS. 19A and 19B for IGF-I and IGF-II, respectively).

[1] = tested on: IGF-1R signaling (phospho-IGF-1R, AKT, ERK1/2); assay: Western blotting of IGF-1R signaling in MCF7 cells; assay type: cell-based, human
Experimental: Also examined was the effect of these antibodies on ligand-dependent IGF-1R signaling by directly analyzing IGF-1R phosphorylation as well as major downstream pathways, such as AKT and MAPK activation. In this assay, MCF7 cells were grown in 6-well plates and serum was withdrawn for 16 hours. […] The cells were directly lysed in SDS sample buffer, and the lysate was analyzed by Western blotting using antibodies against IGF-1R, phospho-IGF-1R, AKT, phospho-AKT, ERK1/2, phospho-ERK1/2 (also called MAPK1/2 and phospho-MAPK1/2) (all from Cell Signaling Technology, Inc.; Beverly, Mass., USA).
For the IGF-1R signaling pathway analysis, MCF7 cells were grown in six-well plates for 24 hours and then serum starved (serum-free and phenol-free RPMI medium supplemented with 1 mg/mL BSA) overnight. The cells were first incubated with h10H5 for 20 minutes, then stimulated with 50 ng/mL IGF-1 or 100 ng/mL IGF-11 for ten minutes. Cells were directly lysed in SDS sample buffer to preserve protein phosphorylation. After brief sonication, the lysates were separated by SDS-PAGE and transferred to nitrocellulose membranes (Invitrogen; Carlsbad, Calif.), which were probed with anti-phospho-IGF-1R, AKT, and ERK1/2 antibodies. The same blots were then stripped using Stripping Buffer™ (Pierce Biotechnology; Rockford, Ill.) and re-probed with antibodies against total IGF-1R β, AKT, and ERK1/2.

IGF-1R = IGF-1R (Homo sapiens, UniProt P08069); assay: KIRA assay of IGF-1R phosphorylation in MCF7 cells; assay type: cell-based; design: IGF-1R is normally localized at the plasma membrane of MCF7 cells; endogenous in cells; host or cells: MCF7; settings: IGF-I 10 ng/ml or IGF-II 50 ng/ml; ranking upon IGF-II stimulation
Experimental: Also examined was whether the blocking activity of these antibodies was sufficient to interfere with receptor activation, which is measured by IGF-1R phosphorylation. A KIRA assay (kinase receptor activation) was utilized to perform quantitative analysis of IGF-1R phosphorylation in MCF7 cells. Anti-IGF-1R antibodies in serial dilutions (0.19 to 200 nM in medium) were added to MCF7 cells in 96-well plates for one hour. IGF-I (10 ng/ml) or IGF-11 (50 ng/ml) was subsequently added and incubated for ten minutes. The cells were lysed, and the resulting lysates were transferred to an ELISA plate, which was coated with IGF-1R-capturing antibody 3B7 (250 ng/well). After incubation for two hours, the cell lysate was removed, and the plates were washed. Phosphotyrosine-specific antibody 4G10 (Upstate, Charlottesville, Va., USA) was added to detect IGF-1R phosphorylation through TMB peroxidase substrate.

Chain of cynomolgus-monkey IGF-1R (G7P9I7 entry or part of it): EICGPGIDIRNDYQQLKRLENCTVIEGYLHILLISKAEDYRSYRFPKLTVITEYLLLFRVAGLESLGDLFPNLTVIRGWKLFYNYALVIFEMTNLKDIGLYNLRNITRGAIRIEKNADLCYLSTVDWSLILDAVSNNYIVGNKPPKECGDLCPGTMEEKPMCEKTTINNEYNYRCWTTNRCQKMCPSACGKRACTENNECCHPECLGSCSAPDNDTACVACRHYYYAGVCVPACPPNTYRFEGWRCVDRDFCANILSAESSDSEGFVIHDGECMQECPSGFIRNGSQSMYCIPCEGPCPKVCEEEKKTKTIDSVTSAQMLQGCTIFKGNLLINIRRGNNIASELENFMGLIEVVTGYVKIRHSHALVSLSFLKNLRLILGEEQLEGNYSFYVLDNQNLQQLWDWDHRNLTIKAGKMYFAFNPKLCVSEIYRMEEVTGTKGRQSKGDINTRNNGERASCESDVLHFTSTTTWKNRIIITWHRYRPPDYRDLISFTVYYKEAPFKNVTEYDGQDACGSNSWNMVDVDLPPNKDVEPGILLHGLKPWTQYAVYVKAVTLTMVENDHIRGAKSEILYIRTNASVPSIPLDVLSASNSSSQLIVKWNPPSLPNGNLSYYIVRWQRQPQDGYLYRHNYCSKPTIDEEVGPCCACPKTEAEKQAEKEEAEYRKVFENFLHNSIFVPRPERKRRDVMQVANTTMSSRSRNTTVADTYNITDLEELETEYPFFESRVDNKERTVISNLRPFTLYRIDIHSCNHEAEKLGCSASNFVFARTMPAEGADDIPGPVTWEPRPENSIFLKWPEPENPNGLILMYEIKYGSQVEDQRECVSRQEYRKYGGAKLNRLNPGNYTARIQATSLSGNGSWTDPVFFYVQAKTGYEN

Molecule	Kd (cynomolgus-monkey IGF-1R) [pM]	inhibition of IGF-I or IGF-II binding to IGF-1R (human IGF-1R-ECD)	inhibition of IGF-I-mediated AKT activation ([1]; serum-starved MCF7, IGF-I 50 ng/ml)	inhibition of IGF-II-mediated IGF-1R phosphorylation and downstream AKT and MAPK1/2 activation ([1]; serum-starved MCF7, IGF-II 100 ng/ml)	inhibition of IGF-I/II-mediated IGF-1R phosphorylation (KIRA) (IGF-1R)
B1	170				
B2		most potent group	potently prevented AKT activation	remained as strong inhibitors	most effective group
